Columns and labels:
cryo-EM structure = biological target: the molecule itself; assay: cryo-EM structure
[1] = biological target: T1, Recombinant Ce C19L1(1-277), untagged (C. elegans, UniProt O16216 1-277); assay: pull-down
T1 sequence: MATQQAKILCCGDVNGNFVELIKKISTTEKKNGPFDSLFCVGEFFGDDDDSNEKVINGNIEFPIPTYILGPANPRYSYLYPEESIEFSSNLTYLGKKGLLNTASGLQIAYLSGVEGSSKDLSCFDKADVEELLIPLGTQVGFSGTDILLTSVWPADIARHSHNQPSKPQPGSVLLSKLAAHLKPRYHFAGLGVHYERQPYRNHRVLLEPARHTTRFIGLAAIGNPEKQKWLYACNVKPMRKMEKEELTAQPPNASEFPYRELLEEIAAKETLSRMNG

[2] = biological target: Recombinant Ce DHX15 (10x-His-FLAG-3C-ceDHX15) (C. elegans, UniProt Q20875 1-739); assay: pull-down
[3] = biological target: T2, Recombinant Ce C19L1 full-length protein, untagged (C. elegans, UniProt O16216 1-533); assay: pull-down
T2 sequence: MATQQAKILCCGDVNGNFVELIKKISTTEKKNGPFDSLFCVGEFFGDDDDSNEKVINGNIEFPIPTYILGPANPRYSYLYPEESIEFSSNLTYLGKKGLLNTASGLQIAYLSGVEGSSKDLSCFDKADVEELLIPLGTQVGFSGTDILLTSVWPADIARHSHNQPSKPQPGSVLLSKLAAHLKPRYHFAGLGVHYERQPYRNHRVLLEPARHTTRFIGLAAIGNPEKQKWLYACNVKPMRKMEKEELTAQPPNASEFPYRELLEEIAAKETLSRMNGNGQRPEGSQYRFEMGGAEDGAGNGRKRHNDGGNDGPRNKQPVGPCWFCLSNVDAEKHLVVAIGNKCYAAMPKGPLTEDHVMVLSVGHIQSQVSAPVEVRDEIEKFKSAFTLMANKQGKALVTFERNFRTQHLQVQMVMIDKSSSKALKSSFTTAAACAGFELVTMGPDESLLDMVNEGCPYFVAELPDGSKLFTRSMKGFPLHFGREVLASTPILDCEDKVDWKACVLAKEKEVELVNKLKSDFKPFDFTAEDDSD

Recombinant Ce DHX15 (10x-His-FLAG-3C-ceDHX15), sequence (Q20875 whole entry): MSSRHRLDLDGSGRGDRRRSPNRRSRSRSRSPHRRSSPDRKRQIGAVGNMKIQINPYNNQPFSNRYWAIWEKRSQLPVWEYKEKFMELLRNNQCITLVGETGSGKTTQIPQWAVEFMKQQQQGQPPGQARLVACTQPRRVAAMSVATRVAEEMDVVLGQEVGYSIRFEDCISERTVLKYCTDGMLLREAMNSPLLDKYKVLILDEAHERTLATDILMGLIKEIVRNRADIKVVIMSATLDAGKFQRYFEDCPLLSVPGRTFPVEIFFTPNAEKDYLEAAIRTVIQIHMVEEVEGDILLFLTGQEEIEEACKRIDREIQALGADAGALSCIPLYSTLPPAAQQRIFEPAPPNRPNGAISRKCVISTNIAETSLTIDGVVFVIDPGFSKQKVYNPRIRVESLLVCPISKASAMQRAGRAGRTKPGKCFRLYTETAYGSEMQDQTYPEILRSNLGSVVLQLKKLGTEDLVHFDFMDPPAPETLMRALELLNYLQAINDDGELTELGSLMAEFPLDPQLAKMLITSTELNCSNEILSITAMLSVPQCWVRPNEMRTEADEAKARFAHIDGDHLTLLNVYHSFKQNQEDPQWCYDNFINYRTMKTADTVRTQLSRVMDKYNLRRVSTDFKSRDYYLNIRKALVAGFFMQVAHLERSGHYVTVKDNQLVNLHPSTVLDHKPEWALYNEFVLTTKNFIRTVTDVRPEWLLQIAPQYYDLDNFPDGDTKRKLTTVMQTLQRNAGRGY

B1: 3xFLAG-PRP19 (C. elegans, prp-19) (natural protein)
chain: MSFVCGISGELTEDPVVSQVSGHIFDRRLIVKFIAENGTDPISHGELSEDQLVSLKSGGTGSAPRNVSGTSIPSLLKMLQDEWDTVMLNSFSLRQQLQIARQELSHSLYQHDAACRVISRLSKELTAAREALSTLKPHTSAKVDDDVSIDESEDQQGLSEAILAKLEEKSKSLTAERKQRGKNLPEGLAKTEELAELKQTASHTGIHSTGTPGITALDIKGNLSLTGGIDKTVVLYDYEKEQVMQTFKGHNKKINAVVLHPDNITAISASADSHIRVWSATDSSSKAIIDVHQAPVTDISLNASGDYILSASDDSYWAFSDIRSGKSLCKVSVEPGSQIAVHSIEFHPDGLIFGTGAADAVVKIWDLKNQTVAAAFPGHTAAVRSIAFSENGYYLATGSEDGEVKLWDLRKLKNLKTFANEEKQPINSLSFDMTGTFLGIGGQKVQVLHVKSWSEVVSLSDHSGPVTGVRFGENARSLVTCSLDKSLRVFSF
- stoichiometry N (cryo-EM structure): 4

B2: ceSYF1(788-818)-wildtype peptide (peptide)
peptide: fluorescein-SMNKGNISFVRGAGKTVQQNTTENPDEIDLD-biotin
- binding result [1]: binds
- binding result [2]: binds

B3: ceC19L2(75-106)-wildtype peptide (peptide)
peptide: fluorescein-EDEKNKLSAKILKAEMKGDTDLVKKLKRKLESM-biotin
- binding result [3]: binds
